Data on five molecules can be found in article PMC10397247.

One assay has as its target T1, APC9806-AA.
T1 chain: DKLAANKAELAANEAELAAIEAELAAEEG
Put plainly: two-hybrid library CCmax.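 Further: natural log of median RNA to DNA barcode read ratio; higher means stronger binding.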 The following applies: mean of both orientations.

Another assay deals with T2, APC9291-AA.
T2 chain: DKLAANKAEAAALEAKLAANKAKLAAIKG
Put plainly: two-hybrid library CCmax.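 Further: natural log of median RNA to DNA barcode read ratio; higher means stronger binding.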 The following applies: mean of both orientations.

Another assay addresses T3, APC9182-AA.
T3 chain: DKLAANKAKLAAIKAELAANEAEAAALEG
Put plainly: two-hybrid library CCmax.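 Further: natural log of median RNA to DNA barcode read ratio; higher means stronger binding.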

Another assay addresses T4, 4H3753-AA.
T4 chain: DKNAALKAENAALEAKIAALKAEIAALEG
Put plainly: two-hybrid library CCmax.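 Further: natural log of median RNA to DNA barcode read ratio; higher means stronger binding.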 The following applies: mean of both orientations.

Another assay has as its target T5, 4H891-AA.
T5 chain: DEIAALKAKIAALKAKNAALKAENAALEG
Put plainly: two-hybrid library CCmax. The following applies: mean of both orientations.

In another assay the target is T6, 4H745-AA.
T6 chain: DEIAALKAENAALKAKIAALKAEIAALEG
Put plainly: two-hybrid library CCmax. The following applies: mean of both orientations.

For another assay, the target named is T7, 4H3130-AA.
T7 chain: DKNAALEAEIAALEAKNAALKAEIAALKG
Put plainly: two-hybrid library CCmax.

The next assay has as its target T8, 4H3865-AA.
T8 chain: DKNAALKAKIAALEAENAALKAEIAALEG
Put plainly: two-hybrid library CCmax. The following applies: mean of both orientations.

The target in a further assay is T9, 4H3697-AA.
T9 chain: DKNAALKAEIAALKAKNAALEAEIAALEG
Put plainly: two-hybrid library CCmax. The following applies: mean of both orientations.

The target in another assay is T10, 4H94-AA.
T10 chain: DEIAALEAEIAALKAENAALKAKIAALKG
Put plainly: two-hybrid library CCmax. The following applies: mean of both orientations.

The next assay concerns the target T11, 4H710-AA.
T11 chain: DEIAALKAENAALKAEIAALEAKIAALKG
Put plainly: two-hybrid library CCmax. The following applies: mean of both orientations.

Another assay has as its target T12, 4H536-AA.
T12 chain: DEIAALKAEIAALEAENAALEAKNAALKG
Put plainly: two-hybrid library CCmax. The following applies: mean of both orientations.

Another assay has as its target T13, 4H3410-AA.
T13 chain: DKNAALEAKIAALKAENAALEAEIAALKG
Put plainly: two-hybrid library CCmax. The following applies: mean of both orientations.

A further assay deals with T14, 4H458-AA.
T14 chain: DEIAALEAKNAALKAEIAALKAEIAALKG
Put plainly: two-hybrid library CCmax. The following applies: mean of both orientations.

The target of a further assay is T15, 4H629-AA.
T15 chain: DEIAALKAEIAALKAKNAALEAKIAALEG
Put plainly: two-hybrid library CCmax. The following applies: mean of both orientations.

The target in another assay is T16, 4H3165-AA.
T16 chain: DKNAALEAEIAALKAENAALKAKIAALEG
Put plainly: two-hybrid library CCmax. The following applies: mean of both orientations.

The next assay concerns the target T17, 4H3590-AA.
T17 chain: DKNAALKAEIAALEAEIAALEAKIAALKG
Put plainly: two-hybrid library CCmax. The following applies: mean of both orientations.

In a further assay the target is T18, 4H850-AA.
T18 chain: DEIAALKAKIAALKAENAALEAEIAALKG
Put plainly: two-hybrid library CCmax. The following applies: mean of both orientations.

The target of the next assay is T19, 4H570-AA.
T19 chain: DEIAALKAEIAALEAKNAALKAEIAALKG
Put plainly: two-hybrid library CCmax. The following applies: mean of both orientations.

In a further assay the target is T20, 4H485-AA.
T20 chain: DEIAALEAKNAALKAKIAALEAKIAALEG
Put plainly: two-hybrid library CCmax. The following applies: mean of both orientations.

In a further assay the target is T21, 4H3395-AA.
T21 chain: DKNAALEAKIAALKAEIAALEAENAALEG
Put plainly: two-hybrid library CCmax. The following applies: mean of both orientations.

A further assay deals with T22, 4H909-AA.
T22 chain: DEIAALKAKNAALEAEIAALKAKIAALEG
Put plainly: two-hybrid library CCmax. The following applies: mean of both orientations.

Another assay concerns the target T23, 4H3381-AA.
T23 chain: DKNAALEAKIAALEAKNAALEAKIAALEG
Put plainly: two-hybrid library CCmax. The following applies: mean of both orientations.

Another assay has as its target T24, 4H797-AA.
T24 chain: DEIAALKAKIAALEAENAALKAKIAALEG
Put plainly: two-hybrid library CCmax. The following applies: mean of both orientations.

The next assay addresses T25, 4H930-AA.
T25 chain: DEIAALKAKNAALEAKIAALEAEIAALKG
Put plainly: two-hybrid library CCmax. The following applies: mean of both orientations.

The next assay has as its target T26, 4H63-AA.
T26 chain: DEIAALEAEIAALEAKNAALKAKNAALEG
Put plainly: two-hybrid library CCmax. The following applies: mean of both orientations.

The target in another assay is T27, 4H483-AA.
T27 chain: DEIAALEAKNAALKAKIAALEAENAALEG
Put plainly: two-hybrid library CCmax. The following applies: mean of both orientations.

The target in the next assay is T28, 4H464-AA.
T28 chain: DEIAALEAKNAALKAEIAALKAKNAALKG
Put plainly: two-hybrid library CCmax.

A further assay deals with T29, 4H906-bH.
T29 chain: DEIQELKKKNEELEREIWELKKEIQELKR
Put plainly: two-hybrid library CCNG1.

The target in the next assay is T30, 4H850-bH.
T30 chain: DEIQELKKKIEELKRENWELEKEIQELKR
Put plainly: two-hybrid library CCNG1.

In another assay the target is T31, 4H446-AA.
T31 chain: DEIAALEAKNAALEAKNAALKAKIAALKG
Put plainly: two-hybrid library CCmax.

Like-named read-outs stand apart in the source and are kept apart here.

B1: APC9182-AA (peptide)
chain: DKLAANKAKLAAIKAELAANEAEAAALEG
On to B1, for which the interaction score with APC9806-AA was -1.59; in the assay with APC9291-AA, -1.98; with APC9182-AA, -1.77.

B2: 4H3130-AA (peptide)
chain: DKNAALEAEIAALEAKNAALKAEIAALKG
In the case of B2, the interaction score with 4H3753-AA is -0.789; in the assay with 4H891-AA it was -1.99; in the assay with 4H745-AA, -1.54; in the assay with 4H3130-AA, 0.118; with 4H3865-AA, 1.11; with 4H3697-AA it was -0.0288. Besides, the interaction score in the assay with 4H94-AA is -0.202; with 4H710-AA, -1.31; with 4H536-AA, -0.902; with 4H3410-AA, 2.07; with 4H458-AA, -3.23; with 4H629-AA, -1.31. Also, the interaction score in the assay with 4H3165-AA was -1.3; with 4H3590-AA, 0.624; in the assay with 4H850-AA, 2.04; in the assay with 4H570-AA, -0.712; with 4H485-AA, -1.58; with 4H3395-AA it was -1.29. Moreover, the interaction score in the assay with 4H909-AA is -1.06; in the assay with 4H3381-AA, -1.07; with 4H797-AA, -1.21; in the assay with 4H930-AA it was -1.73.

B3: 4H464-AA (peptide)
chain: DEIAALEAKNAALKAEIAALKAKNAALKG
As for B3, the values for the interaction score in the assay with 4H63-AA, with 4H483-AA and with 4H464-AA were -1.22, -0.618 and -1.22, respectively.

B4: 4H850-bH (peptide)
chain: DEIQELKKKIEELKRENWELEKEIQELKR
Turning to B4, the figures for the interaction score in the assay with 4H906-bH and with 4H850-bH were -0.227 and 0.554, respectively.

B5: 4H446-AA (peptide)
chain: DEIAALEAKNAALEAKNAALKAKIAALKG
Turning to B5, the interaction score in the assay with 4H63-AA is -1.67; with 4H446-AA it was -1.68; in the assay with 4H483-AA, -2.13; with 4H464-AA (mean of both orientations), -1.77.
